Experimental data taken from patent publication US20230295305A1.

Biological target: biotinylated pHLA: HLA subtype A*02:01 complexed with … (HLA-PEPTIDE target G8) (human)
Assay: MSD U-PLEX, periplasmic extract on biotinylated pHLA; ratio of target signal to OTLA signal

Average Target/OTLA: 1
Target/OTLA 61: 1
Target/OTLA 67: 2
Target/OTLA 246: 1
Target/OTLA 250: 1
Substance: Negative control (MSD screen)
